Source: the supplement of paper PMC9170038

Each sequence was assayed on K4 kissing-loop RNA reporter (assay: apparent KD of K4 kissing-loop reporter; higher = weaker reporter binding). Conditions: Eterna round: R107; input ligand: arginine 13.2 mM.
Protocol: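 RNA-MaP round R107: designed RNA switches with theophylline, tryptophan, arginine or FMN aptamers are transcribed on-chip within common flanks. They are titrated with a labelled K4 kissing-loop RNA reporter in RNA-MaP buffer (100 mM Tris pH 7.5, 80 mM KCl, 4 mM MgCl2), without ligand or with the indicated ligand. Median apparent KD per design.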
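Also: bound reporter read as fluorescence of individual clusters on recovered sequencing chips by microscopy, with normalized cluster intensities fitted with a binding model.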

Point of comparison: “CGGAUGUAGUGAUGUUAUAUUAGAUGUAGACGAGGACCGGUACGGCCGCCACUCGAAACGGCUACUAGCGCGUUGCGAGGUGUGC [ExTryptoA.CJ]”, “apparent KD of K4 kissing-loop reporter” value 525 nM. Against it:
- UUUCGGCCCAGUGAUGUUGGGUGGAGGCGGCGAGGACCGGUACGGCCGCCACUCGGCGCACUGGCGGAGUGAUGUUUCGUGUAUA [Same State Tryptophan A GF 14] — within 1.5-fold, 592 nM
- UGACUGGAUGGAAGGAGCGCUAAACUCCUAGUGAUGUUAGGGACACGAGACAAAGUCUCGAGGCAGGUAGGUCGCCAUCUAGUCU [FiskerMod 7 - Jieux - Same State - Arginine B] — 2.7-fold lower, 198 nM
- AAUAAGGAGUGAUGUUCCAAGUGAUGUUAACGAGGACCGGUACGGCCGCCACUCGAUACGGCCGGAAAGUAAGAUAAACUAAAAU [Same State - Tryptophan A (Freestyle 2)] — 12-fold lower, 42.8 nM
- UGCGCUGUGUCCUGAAAUGUCCUCCGGGAUACCAGAGUCUUUUUAUUCCCUUGGCAGCUUGAGUGAUGUUUGAUGCCGUUCUUGU [yvvymullin] — within 1.5-fold, 481 nM
- UGGGAUGGUUCGGCCGCCACUAUGGUGCAGUGAUGUUGCAUCGUAGUAAAUCAUUCCAUUUACCGUAGGACCGGGAACCUUACGC [Mavelege] — 6.3-fold lower, 82.7 nM
- GGGUGGUAGGCGGCCGCCACUCUGAGCACCCACUGAGUGAUGUUCGUGGCGUAAGCCUGUUCAUAGAGGACCGGGUUUGUUGUUC [Exclusion Tryptophan B GF 16] — 2.1-fold lower, 252 nM
- CGCAAGCAGCUAGUGAUGUUGGCCGCCUUGCGAGGACCGGUACGGCCGCCACUCGGAGGCGGCUACUGAUAAACCGUCUAACGGA [KL-XTryp-A10] — 7.8-fold lower, 67.2 nM
- GGGAGUGAUGUUCCCACGUUGUCGGUCCUCCGAGGACCGGUACGGCCGCCACUCGCGACCCAGUGAUGUUGGGACUCACCGUACC [Exclusion Tryptophan A Gf 12] — within 1.5-fold, 377 nM
- UACGUAGAGCGAGGAUAUCCUUCCCACGUCGAAGUACCGUGCUUGAUGGAGUGAUGUUCGAUCAGAGGAGAAGGUGCGAAACGUC [Flavin Switch Lower Fold Energy] — within 1.5-fold, 618 nM
- AAUUCAGCUAGUGAUGUUAGCGUAGAGUGCAAGGAUAUCCCUGUCAGGAGAAGGUGCGUAGAACGUUUGCCAUCAGAUUGUCCCA [theeternabot_exclusion_KL_FMN_A_48] — 5.4-fold lower, 97.2 nM
- GAUAUAGUGAUGUUAUAUACUGAUAGACAACGAGGACCGGUACGGCCGCCACUCGAGAGGGUGAAAUUAAUGAUAAAAUAAUAAU [ExyTryA#2] — within 1.5-fold, 351 nM
- GCAGUGAUGUUGCUGAUGUGCAGUGGUAGUCGAGGACCGGUACGGCCGCCACUCGGUGAGAAUUUGCUAAUACAUCGAUAAGUGA [XVII] — within 1.5-fold, 614 nM
- CUCAGAAAGACUGUCCAAGUGAUGUUUGGACGAGGACCGGUACGGCCGCCACUCGCUGUUGCGAAUGUUAAGGUACGAGUCGCGG [theeternabot_exclusion_KL_Trp_A_30] — 5.9-fold lower, 89.7 nM
- CUGACCAACAGCGAUACCAGCGUGGAGUGAUGUUCCCUGGUCCGGGCUGAUGUUCCCUUGCGCCCUUGGCAGCGCAGAAGCAGGA [Exclusion Theophylline B GF 12] — 2-fold lower, 263 nM
- UUAGAGAUCUCAGGAUAUCAGUGAUGUUGGUGUAAAGAUCUGAGAUAGAAUUCUAUCUCAGAUCAAUGAGAAGGGAGAUCUCAUU [AK3.2 Exc FMN B] — 2.9-fold lower, 179 nM
- AUGGUGGAUCAGUGAUGUUGGUGGAGUACGUAGGAUAUGAGUGAUGUUAGAAGGAUGGGAGUGAUGUUCCAGGUGGUUGUGUUGU [KL-SSFMN-A1] — within 1.5-fold, 364 nM
- GUUUCUUGGAAACAAGGACCGCUAACCGAAGGAGCGAGUGAAAACUCAGGUAGGUCGCGGUAGCGGAGUGAUGUUCCGCGUUUAC [Excluson Arginine A GF 15] — 4.1-fold lower, 129 nM
- UCGGACCCUGGAGGAUAUGAGUCGAGUGAUGUUUGGCGGUCCAUGCCGGUGCGGCGUUAUGCCCUUUUAGAAGGCCAGGGUCCGA [#2 Exclusion - FMN B Attempt #13 (HarryS)] — 2.9-fold lower, 182 nM
- UUCAGGUGUUCGGCCGCCACUCCAGUGAUGUUGGAGUGGCUUCACAAGGACCAGGACAAUGUAAGGAGGACCGGGAAUAUCGCAG [Leerat] — 4.8-fold lower, 110 nM
- ACUGGAAUUGUACUCCAGUGAUGUUGGAGGCAGGAUAUCCAGUAAAGGAGAAGGGCCAUCGCGCUAUUUGGCCGCAGGCGGCCAG [Acela] — 4.6-fold lower, 113 nM
- UUUGUAUCGGGAAGGAGCGUGAAUGAUAAUGGAUAUAGUGAUGUUAUAUAUAAGAACGAAUCGCAGGUAGGUCGCCCGGAUGACU [SSArgB.Q] — within 1.5-fold, 388 nM
- UUUGGUUUCUCGGCCGCCACUCGUUGGUUAUGGGCUUCAGGGAUAUAGUGAUGUUAUGUAUAGAAGAGGACCGGGAGAAGGUUUG [ExTryptoB.Dt] — 1.5-fold lower, 343 nM
- GCCUGGGCACGAAGGAGCGCCGUGACAGGUUACUGCAUUGGGCAGUGAUGUUGCUCAAUCUGGCAGGUAGGUCGCGUGCCCAGGC — 4.6-fold lower, 114 nM
- GGUGUUGUUUGUGCUGUUUUCUUUGUUUCUCGAGGACCGGUACGGCCGCCACUCGAGUGAUGUUUGGGUAGUGAUGUUUGUUAGU [Bdazzled #1 Exc. TA] — 3.6-fold lower, 147 nM
- AGACUACCACACUGUCAAUAGACAGUGUACUAGGAUAUGCUGAUAAGCAGAAGGAGUGAUGUUCCUGGGUAGUCAAUAAAAUAAU [FmnAX 13 U28+G67] — within 1.5-fold, 388 nM
- AGCGAUGUUUUCUCUAGGAGUGAUGUUUUUCGAGGACCGGUACGGCCGCCACUCGGACGACGAGUGUGGUAGUGGGCUGUUGACU [ffmullin] — 1.8-fold lower, 296 nM
- UAGUCCUAGUGAUCGUUAUCAAGUGGUGGGCGAGGACCGGUACGGCCGCCACUCGACUAUGCAGUGAUGUUGCAAUCCGGACAAU [Exclusion - Tryptophan A (Freestyle 14)] — 2.2-fold lower, 238 nM
- GCCUAGCAGGGAAGGAGCGGCAUAGGCAUAGAUAAUAUGCAGUUAGUGAUGUUAACACUAUGCCAGGUAGGUCGCCCUGCUAGGC [KL-SSArg B8] — 5.5-fold lower, 95.4 nM
- CCAUCGCUAUUCGAUACCAGUCUUUUUUAUUUAUAAAAUCUGCAAAGGAGUGAUGUUCCAGACCCUUGGCAGCGAAUAGUGAUGG [Theophylline B K4 3] — within 1.5-fold, 441 nM
- AAAUAAUGCAGUCACCCAGUGAUGUUGGAAGGAGCGUGCGAAAGCACAGGUAGGUCGCCAAUAAUGAUAAAGUUCAGUGGCUUUA [JR_Nu_ExcArginiA_Sub030] — within 1.5-fold, 682 nM
- GCAUGCAUGGCAGGAUAUAAUCUGGAGUGAUGUUCCUUUAACCUUUCGAACGGCGAGCCAGGUUGAUUAGAAGGGCCAUGCAUGC — within 1.5-fold, 476 nM
- UAUCAGAUUACUGAUACCAGUCUAAAGACAGUGAUGUUGUCUGAUCGACCACGAUCCAAGGACCCUUGGCAGCAGUGUACUAUUC [#30 K4 Theophylline B Same State] — 2.9-fold lower, 183 nM

Same assay, conditions: Eterna round: R107; input ligand: none

Point of comparison: “UACGUAGAGCGAGGAUAUCCUUCCCACGUCGAAGUACCGUGCUUGAUGGAGUGAUGUUCGAUCAGAGGAGAAGGUGCGAAACGUC [Flavin Switch Lower Fold Energy]”, “apparent KD of K4 kissing-loop reporter” value 724 nM. Against it:
- UUUCGUUGAAGUGAUACCAGACUUGAAAGUGAUGUUUUCCAAUAAUUUAAAUUAUUAGCUGUCCCUUGGCAGCACAGUUUAUUUA [JR_ExcTheophyB_Sub007] — 2.2-fold lower, 327 nM
- UGUAUGUGAUUUGAUACCAGACCAGCUGAUGGAUCACGAGUGAUGUUCGUGUUGGUUUGGGUCCCUUGGCAGCAAAUCGCAUACU [KL-SSTheoB14] — 2.2-fold lower, 324 nM
- UGUGUUGUUUUGAUGUUUGGUGUUGCUUGGCAGGAUAUCGUAGAGGCGAGAAGGGCUUGUGAGCGGUAUGAGUGAUGUUUGUAGG [zwwrmullin] — 1.6-fold lower, 455 nM
- AAAGCAGUAUACUGCAAGACCUAUACUGAUACCAGAGUCAAUUGACUCCCUUGGCAGCGGAUCGAGUGAUGUUCGUAAGGUCAAA [AK4.1 SS Theophylline A] — within 1.5-fold, 528 nM
- AGACCACAAAGUGGUCAGUGUUCGCUGCAGCGAGGACCGGUACGGCCGCCACUCGCGAGUGAUGUUCGCGAGAGCAGCGAACACA [Omei KL Tryp A Exc A v6] — 8.8-fold lower, 82.1 nM
- CAUAUCAGAUAAGGAUAUAUGGCUCCUCGAGUCCAGUGAUGUUGGGCAACGUUUCAGUGGUGGAUUAUAGAAGGUAUUCACAGAC [theeternabot_sameState_KL_FMN_B_9] — 2.6-fold lower, 276 nM
- UAGCGUCUGCGAGGAUAUCGGAUUAGAGUGAUGUUCUAAAGACGCCCAGUGAUGUUGGAUGCGAUACGAGAAGGCGCUGGGCGCG [Same State FMN B GF7] — 1.8-fold lower, 399 nM
- GGUAGCAUGGCGGCCGCCACUGUCUAGUGAUGUUAGACCCGACGUGGAUUCAAGACAGUCGGAAACAGGACCGGGCCAUGCUACC — 2.2-fold lower, 330 nM
- AAUUUAUUAACUGAUACCAGACUUAAUAAAUUUUAAAUCACUAGUGAUGUUAGUGAAUAUGUCCCUUGGCAGCAGUAUUUAUUAA [JR_SSTheophyB_Sub023] — 5.8-fold lower, 125 nM
- GGAUAGGACAGAGGAUAUGGUAGUGAUGUUACCACGAGACAAAGUCUCGAAAAGCUACAAAGUAGCCCAGAAGGCUGUCCUAUCG [FmnBX 25 #SwitchBubble #StaticStem #Palindromic] — 5.6-fold lower, 130 nM
- UUUCGGCCCAGUGAUGUUGGGUGGAGGCGGCGAGGACCGGUACGGCCGCCACUCGGCGCACUGGCGGAGUGAUGUUUCGUGUAUA [Same State Tryptophan A GF 14] — within 1.5-fold, 752 nM
- UGACUGGAUGGAAGGAGCGCUAAACUCCUAGUGAUGUUAGGGACACGAGACAAAGUCUCGAGGCAGGUAGGUCGCCAUCUAGUCU [FiskerMod 7 - Jieux - Same State - Arginine B] — 3.7-fold lower, 197 nM
- AAUAAGGAGUGAUGUUCCAAGUGAUGUUAACGAGGACCGGUACGGCCGCCACUCGAUACGGCCGGAAAGUAAGAUAAACUAAAAU [Same State - Tryptophan A (Freestyle 2)] — 14-fold lower, 52.3 nM
- UGCGCUGUGUCCUGAAAUGUCCUCCGGGAUACCAGAGUCUUUUUAUUCCCUUGGCAGCUUGAGUGAUGUUUGAUGCCGUUCUUGU [yvvymullin] — within 1.5-fold, 713 nM
- UGGGAUGGUUCGGCCGCCACUAUGGUGCAGUGAUGUUGCAUCGUAGUAAAUCAUUCCAUUUACCGUAGGACCGGGAACCUUACGC [Mavelege] — 7.6-fold lower, 94.9 nM
- GGGUGGUAGGCGGCCGCCACUCUGAGCACCCACUGAGUGAUGUUCGUGGCGUAAGCCUGUUCAUAGAGGACCGGGUUUGUUGUUC [Exclusion Tryptophan B GF 16] — within 1.5-fold, 514 nM
- CGCAAGCAGCUAGUGAUGUUGGCCGCCUUGCGAGGACCGGUACGGCCGCCACUCGGAGGCGGCUACUGAUAAACCGUCUAACGGA [KL-XTryp-A10] — 8.6-fold lower, 84.3 nM
- GGGAGUGAUGUUCCCACGUUGUCGGUCCUCCGAGGACCGGUACGGCCGCCACUCGCGACCCAGUGAUGUUGGGACUCACCGUACC [Exclusion Tryptophan A Gf 12] — within 1.5-fold, 558 nM
- AAUUCAGCUAGUGAUGUUAGCGUAGAGUGCAAGGAUAUCCCUGUCAGGAGAAGGUGCGUAGAACGUUUGCCAUCAGAUUGUCCCA [theeternabot_exclusion_KL_FMN_A_48] — 6.1-fold lower, 118 nM
- GAUAUAGUGAUGUUAUAUACUGAUAGACAACGAGGACCGGUACGGCCGCCACUCGAGAGGGUGAAAUUAAUGAUAAAAUAAUAAU [ExyTryA#2] — 2-fold lower, 356 nM
